Reference: patent publication US20100278838A1, “EPHA2 MONOCLONAL ANTIBODIES AND METHODS OF USE THEREOF” (MEDIMMUNE, LLC, priority 2002, published 2010)
Entries after “also recorded” stand apart in the source; their conditions may differ.

How the values were obtained:
[1] = tested on: MDA-MB-231 breast cancer cells implanted orthotopically; assay: Tumor growth in vivo, MDA-MB-231 implanted orthotopically; design: species or system athymic mice; conditions: 6mg/kg intraperitoneally twice a week for 3 weeks; versus PBS or 1A7
Experimental: FIGS. 7A-7D: The EphA2 antibodies, EA2, Eph099B-208.261, and Eph099B-233.152, inhibit tumor cell growth in vivo. MDA-MB-231 breast cancer cells were implanted (A) orthotopically or (B) subcutaneously into athymic mice. (C) A549 lung cancer cells were implanted subcutaneously into athymic mice. After the tumors had grown to an average volume of 100 mm^3, mice were administered 6 mg/kg of the indicated antibody or negative control (PBS or 1A7 antibody) intraperitoneally twice a week for 3 weeks. Tumor growth was assessed and expressed as a ratio of the tumor volume divided by initial tumor volume (100 mm^3). (D) MDA-MB-231 breast cancer cells were implanted subcutaneously into athymic mice. After the tumors had grown to an average volume of 100 mm^3, mice were administered 6 mg/kg of the indicated antibody or negative control intraperitoneally twice a week for 3 weeks. Total tumor volume was determined after sacrifice. Negative control is black, EA2 is white, Eph099B-208.261 is dark grey, and Eph099B-233.152 is light grey.
5×10^6MDA-MB-231 breast cancer cells were implanted orthotopically or subcutaneously and 5×10^6 A549 lung cancer cells were implanted subcutaneously into athymic mice. […] Tumor growth was assessed and expressed either as a ratio of the tumor volume divided by initial tumor volume (100 mm^3) or as total tumor volume. […]

control MCF-7 cells = assay: Soft agar colonization of control MCF-7 cells; assay type: cell-based; conditions: EA2 10 μg/ml, tamoxifen 1 μM
Experimental: (§1) FIGS. 11A-11B: EphA2 overexpression decreases tamoxifen sensitivity. (A) 1×10^5 MCF-7 or MCF-7^EphA2 cells were suspended in soft agar in the presence of 1 μM tamoxifen (TAM) and or 1 μM 17β-estradiol and colony formation was evaluated microscopically after 14 days. (B) MCF-7 (circles) or MCF-7^EphA2 cells (squares) were implanted into the mammary fatpad (n=15 mice per group) in the presence of supplemental estrogen. Tamoxifen treatment was initiated 17 days post-implantation. Tumor volume of tamoxifen treated (black circles and squares) and saline treated (white circles and squares) animals was measured at the indicated time.
(§2) FIGS. 13A-13C: EphA2 agonistic antibody EA2 decreases malignant growth. MCF-7^EPhA2 cells were incubated in the presence of 3 μg/ml of EA2 for the time indicated prior to sample extraction and western blot analyses with an EphA2-specific antibody (D7). […]
(§3) EphA2 overexpression increased malignant growth (FIGS. 8A-8B). […] Colony formation in soft agar was performed as previously described (Zelinski et al., 2001, Cancer Res. 61:2301-6) and scored microscopically, defining clusters of at least three cells as a positive. […] Error bars represent the standard error of the mean of at least three different experiments as determined using Microsoft Excel software.
(§4) Sensitivity of MCF-7^EphA2 cells to tamoxifen was measured. […]

MCF-7^EphA2 cells = assay: Soft agar colonization of MCF-7^EphA2 cells; assay type: cell-based, human; conditions: EA2 10 μg/ml, tamoxifen 1 μM
Experimental: as §1, §2, §3, §4

EphA2 = EphA2 (Homo sapiens, UniProt P29317); assay: EphA2 expression level in MCF-7^EphA2 cells after EA2 (western blot); assay type: cell-based; conditions: 3 μg/ml EA2
Experimental: FIGS. 13A-13C: EphA2 agonistic antibody EA2 decreases malignant growth. MCF-7^EPhA2 cells were incubated in the presence of 3 μg/ml of EA2 for the time indicated prior to sample extraction and western blot analyses with an EphA2-specific antibody (D7). (B) The membrane was stripped and re-probed with a β-catenin-specific antibody as a loading control. (C) 1×10^5 control or MCF-7^EphA2 cells were suspended in soft agar in the presence or absence of tamoxifen (TAM, 1 μM) and EphA2 agonistic antibody (EA2, 10 μg/ml).
Growth MCF-7^EphA2 cells which had decreased EphA2 expression levels was assayed in soft agar. The EphA2 monoclonal antibody EA2 induced EphA2 activation and subsequent degradation. […] Whereas EA2 decreased soft agar colonization (by 19%), the combination of EA2 and tamoxifen caused a much more dramatic (>80%) decrease in soft agar colonization.

[2] = tested on: EphA2 on non-transformed MCF-10A cells; assay: Immunofluorescence binding to non-transformed cells with or without EGTA; assay type: cell-based; conditions: 4mM EGTA for 20 min
Experimental: (A, B) Non-transformed MCF-10A cells were labeled with EA2 at 4° C. either before (A) or after (B) treatment with EGTA and prior to fixation and immunolabeling with fluorophore-conjugated anti-mouse IgG. (C, D) Non-transformed MCF-10A (C) or transformed MDA-MB-231 (D) cells were labeled with EA2 either before (middle) or after (top) treatment with EGTA. Control cells were incubated with secondary antibody alone (bottom). The amount of EA2-EphA2 binding was measured using flow cytometry.
The epitopes of EphA2 antibodies were characterized. Non-transformed MCF-10A cells or transformed MDA-MB-231 cells were incubated with 10 μg/ml Eph099B-233.152 or EA2 at 4° C. for 30 min. prior to fixation in a 3% formalin solution and immunolabeling with fluorophore-conjugated anti-mouse IgG. […] Treatment of non-transformed MCF-10A cells with 4mM EGTA for 20 min. dissociated the cells.

Sequence of EphA2 (P29317 24-976): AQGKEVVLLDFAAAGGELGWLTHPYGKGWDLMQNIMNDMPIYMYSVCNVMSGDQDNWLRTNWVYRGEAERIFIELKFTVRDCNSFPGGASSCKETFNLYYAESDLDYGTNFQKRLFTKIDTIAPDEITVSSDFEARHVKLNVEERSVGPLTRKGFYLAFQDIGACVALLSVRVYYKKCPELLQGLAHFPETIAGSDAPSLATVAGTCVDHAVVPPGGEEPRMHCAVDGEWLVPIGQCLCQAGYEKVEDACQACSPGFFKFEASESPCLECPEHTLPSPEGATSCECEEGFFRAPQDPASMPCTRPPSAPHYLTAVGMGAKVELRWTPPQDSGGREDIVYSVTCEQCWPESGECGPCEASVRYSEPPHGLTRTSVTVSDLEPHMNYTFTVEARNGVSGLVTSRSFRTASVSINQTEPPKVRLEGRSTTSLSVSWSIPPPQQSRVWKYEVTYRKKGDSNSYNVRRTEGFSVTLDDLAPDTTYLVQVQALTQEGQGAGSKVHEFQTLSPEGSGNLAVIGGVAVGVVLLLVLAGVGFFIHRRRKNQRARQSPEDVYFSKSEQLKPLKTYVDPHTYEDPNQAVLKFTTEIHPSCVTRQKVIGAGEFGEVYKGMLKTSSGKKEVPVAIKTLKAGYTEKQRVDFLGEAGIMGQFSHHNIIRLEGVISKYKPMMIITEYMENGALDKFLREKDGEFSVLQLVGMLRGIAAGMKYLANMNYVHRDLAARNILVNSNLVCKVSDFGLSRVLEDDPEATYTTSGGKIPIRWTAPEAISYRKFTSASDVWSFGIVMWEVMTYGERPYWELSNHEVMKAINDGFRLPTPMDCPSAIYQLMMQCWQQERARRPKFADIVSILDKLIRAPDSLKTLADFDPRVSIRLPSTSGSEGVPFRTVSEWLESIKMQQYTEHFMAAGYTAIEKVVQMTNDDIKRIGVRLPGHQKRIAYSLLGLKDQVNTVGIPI

- Time EphA2 remained undetectable (EphA2): ≥ 24 h
B1: EA2: EphA2 agonistic monoclonal antibody; ATCC deposit no. PTA-4380; co-pending application Ser. No. 10/436,783; VL SEQ ID NO:33, VH SEQ ID NO:37 (antibody, listed as Homo Sapiens, V domains shown)
VH: DVKLVESGGGLVKPGGSLKLSCAASGFTFSSYTMSWVRQTPEKRLEWVATISSGGTYTYYPDSVKGRFTISRDNAKNTLYLQMSSLKSEDTAMYYCTREAIFTYWGQGTLVTVSA
VL: DIKMTQSPSSMYASLGERVTITCKASQDINNYLSWFQQKPGKSPKTLIYRANRLVDGVPSRFSGSGSGQDYSLTISSLEYEDMGIYYCLKYDEFPYTFGGGTKLEIK
- Growth of MDA-MB-231 cells implanted orthotopically [1]: inhibited
- Effect of EA2 on tamoxifen response of control MCF-7 cells in soft agar (control MCF-7 cells): did not further alter this response
- Sensitivity of MCF-7^EphA2 cells to tamoxifen in soft agar (MCF-7^EphA2 cells): increased the sensitivity of MCF-7^EphA2 cells to tamoxifen
- Inhibition / decrease of soft agar colonization, MCF-7^EphA2 cells (MCF-7^EphA2 cells): 19%
- EphA2 expression level (EphA2): Decreased levels of EphA2 expression were observed within two hours
- Binding to EphA2 on MCF-10A cells with or without EGTA dissociation [2]: bound EphA2 on the EGTA dissociated cells but not the untreated cells; also recorded: preferentially binds EphA2 epitopes exposed by decreasing cell-cell contacts
